± gives the standard deviation of the averaged measurements.
B1: library; a variant is named by its letters at N, in order (parent)
chain: GCUGUCACCGGUGCUUGGUACGUUAUAUUCAGCCGGUCUGAUGAGUCUNNNNNNAGACGAAACAGC

How the values were obtained:
(6R,S)-folinic acid [1] = variants of: B1; experiment: normalized RNA/DNA level without ligand (relative to sTRSVctl = 100) (log10 (% of sTRSVctl)); HEK293T overexpressing SLC46A1; higher = less ribozyme self-cleavage, higher mRNA level; settings: without (6R,S)-folinic acid; ligand present: no
How it was run: (§1)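 Total RNA, extracted with EDTA 72 h after HEK293T cells were transfected with 4 µg per 6-well well of reporter-linked ribozyme switch library plasmids, was reverse-transcribed, amplified, barcoded and sequenced. Ligand, if used, was added 1 h before transfection. RNA level was derived from RNA reads divided by DNA reads and normalized to a spiked-in non-cleaving sequence or to the top sequences. This was multiplied by 100 and log10-transformed, with the top set of 25 sequences and a ≥100 DNA read minimum.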

(6R,S)-folinic acid [2] = variants of: B1; experiment: normalized RNA/DNA level with ligand (relative to sTRSVctl = 100) (log10 (% of sTRSVctl)); HEK293T overexpressing SLC46A1; ligand concentration (+) RNA-Seq: 6 mM; higher = less ribozyme self-cleavage, higher mRNA level; settings: with (6R,S)-folinic acid; ligand present: yes
How it was run: as §1

Variant	normalized RNA/DNA level without ligand (log10) ((6R,S)-folinic acid [1])	normalized RNA/DNA level with ligand (log10) ((6R,S)-folinic acid [2])
UUUGCC	2.001 ± 0.004	2.04 ± 0.037
AUUUCG	1.961 ± 0.016	2 ± 0.026
AUUUCA	2.036 ± 0.012	2.01 ± 0.026
AUUUCU	2.03 ± 0.025	2.034 ± 0.019
AUUUCC	2.048 ± 0.0099	2.037 ± 0.01
CUUGAC	1.998 ± 0.0057	2.033 ± 0.0045
CUUGAA	1.958 ± 0.01	1.99 ± 0.049
GUUGAU	1.97 ± 0.021	2.003 ± 0.019
CUUCUA	2.0515 ± 0.00054	2.083 ± 0.015
CUUCUU	2.016 ± 0.0066	1.97 ± 0.025
CUUCUG	2.06 ± 0.021	2.026 ± 0.0091
CUUCUC	2.05 ± 0.0097	2.02 ± 0.056
CUUUAU	1.9766 ± 0.0013	2 ± 0.048
CUUUAG	1.97 ± 0.024	1.9987 ± 0.00067
CUUUAC	2.019 ± 0.0086	2.01 ± 0.062
CUUUAA	1.978 ± 0.0046	2 ± 0.026
AUUCGG	1.952 ± 0.017	2.04 ± 0.026
AUUCGU	1.99 ± 0.0072	1.97 ± 0.057
GUUUAU	1.99 ± 0.02	1.99 ± 0.031
GUUUAC	2.02 ± 0.028	2.016 ± 0.002
GUUUAA	1.989 ± 0.0071	1.99 ± 0.025
GUUGCA	2 ± 0.011	2.01 ± 0.038

Variant	normalized RNA/DNA level without ligand (log10) ((6R,S)-folinic acid [1])	normalized RNA/DNA level with ligand (log10) ((6R,S)-folinic acid [2])
GUUGCC	2.0274 ± 0.0015	1.998 ± 0.018
UUUUCC	2.02 ± 0.022	2 ± 0.032
UUUUCU	2.012 ± 0.011	2.01 ± 0.038
UUUUCG	1.87 ± 0.018	1.998 ± 0.0083
UUUUCA	2.018 ± 0.011	2.02 ± 0.041
CUUCGG	2.063 ± 0.0068	2.036 ± 0.0089
CUUCGU	2.053 ± 0.0097	2.04 ± 0.048
UUUGAC	2.012 ± 0.0044	2.011 ± 0.018
AUUCUG	1.94 ± 0.011	1.99 ± 0.043
AUUCUU	2.02 ± 0.027	2.04 ± 0.023
AUUCUA	2.005 ± 0.0047	1.999 ± 0.01
AUUCUC	2.072 ± 0.012	2.04 ± 0.042
GUUGGC	1.914 ± 0.019	2.02 ± 0.036
GUUGGG	1.912 ± 0.013	2.042 ± 0.017
UUUUAA	1.973 ± 0.018	2.03 ± 0.02
UUUUAU	2.007 ± 0.016	2.02 ± 0.023
AUUUUU	1.989 ± 0.017	2.01 ± 0.029
GUUGUC	2.02 ± 0.025	2.021 ± 0.019
GUUGUU	2.03 ± 0.021	2.035 ± 0.018
UUUUGC	1.959 ± 0.0097	1.93 ± 0.055
UUUUGU	1.957 ± 0.014	2 ± 0.046
GUUCGU	1.998 ± 0.019	2.01 ± 0.035

Variant	normalized RNA/DNA level without ligand (log10) ((6R,S)-folinic acid [1])	normalized RNA/DNA level with ligand (log10) ((6R,S)-folinic acid [2])
UUUGGU	1.953 ± 0.013	1.98 ± 0.071
UUUGGC	1.995 ± 0.0079	2.04 ± 0.027
UUUUUC	2.05 ± 0.026	2.01 ± 0.026
UUUUUU	2.017 ± 0.014	2.03 ± 0.032
UUUUUA	2.002 ± 0.0053	2.007 ± 0.014
CUUGGU	2.01 ± 0.021	2.01 ± 0.029
UUUGUA	1.959 ± 0.0085	2.007 ± 0.014
UUUGUC	2.069 ± 0.018	2.034 ± 0.02
UUUGUU	1.944 ± 0.0033	1.99 ± 0.032
UUUGUG	1.73 ± 0.051	1.95 ± 0.046
CUUUUG	2.0401 ± 0.001	2.04 ± 0.029
CUUUUA	1.988 ± 0.012	2 ± 0.052
UUUCUA	2.019 ± 0.011	2.042 ± 0.0037
UUUCUU	2.043 ± 0.0064	2.02 ± 0.021
UUUCUC	2.118 ± 0.0058	2.062 ± 0.014
CUUGUA	2.027 ± 0.018	2.036 ± 0.013
CUUGUU	2.02 ± 0.03	1.995 ± 0.018
CUUGUC	2.091 ± 0.018	2.06 ± 0.027
GUUUGG	1.985 ± 0.015	2.03 ± 0.044
GUUUGA	2.013 ± 0.0046	2.05 ± 0.034
GUUUGC	1.951 ± 0.018	2.02 ± 0.067

Reference: the supplement of paper PMC6757056
